Experimental data published in US20080050387A1, “Non-Androgen Dependent Roles for Androgen Receptor and Non-Androgen Related Inhibitors of Androgen Receptor” (priority 2003, published 2008).

B1: ARA671-280: N-terminal region of ARA67, residues 1-280 (protein)
chain: MAAVELEWIPETLYNTAISAVVDNYIRSRRDIRSLPENIQFDVYYKLYQQGRLCQLGSEFCELEVFAKVLRALDKRHLLHHCFQALMDHGVKVASVLAYSFSRRCSYIAESDAAVKEKAIQVGFVLGGFLSDAGWYSDAEKVFLSCLQLCTLHDEMLHWFRAVECCVRLLHVRNGNCKYHLGEETFKLAQTYMDKLSKHGQQANKAALYGELCALLFAKSHYDEAYKWCIEAMKEITAGLPVKVVVDVLRQASKACVVKREFKKAEQLIKHAVYLARDHF
B2: ARA67281-585: C-terminal region of ARA67, residues 281-585 (protein)
chain: GSKHPKYSDTLLDYGFYLLNVDNICQSVAIYQAALDIRQSVFGGKNIHVATAHEDLAYSSYVHQYSSGKFDNALFHAERAIGIITHILPEDHLLLASSKRVKALILEEIAIDCHNKETEQRLLQEAHDLHLSSLQLAKKAFGEFNVQTAKHYGNLGRLYQSMRKFKEAEEMHIKAIQIKEQLLGQEDYEVALSVGHLASLYNYDMNQYENAEKLYLRSIAIGKKLFGEGYSGLEYDYRGLIKLYNSIGNYEKVFEYHNVLSNWNRLRDRQYSVTDALEDVSTSPQSTEEVVQSFLISQNVEGPSC
B3: ARA678-140: truncated ARA67 fragment, residues 8-140 (protein)
chain: WIPETLYNTAISAVVDNYIRSRRDIRSLPENIQFDVYYKLYQQGRLCQLGSEFCELEVFAKVLRALDKRHLLHHCFQALMDHGVKVASVLAYSFSRRCSYIAESDAAVKEKAIQVGFVLGGFLSDAGWYSDAE
B4: GST-ARA67170-338: GST-fused ARA67 fragment 170-338, which contains the LXXLL motif (protein)
chain: LHVRNGNCKYHLGEETFKLAQTYMDKLSKHGQQANKAALYGELCALLFAKSHYDEAYKWCIEAMKEITAGLPVKVVVDVLRQASKACVVKREFKKAEQLIKHAVYLARDHFGSKHPKYSDTLLDYGFYLLNVDNICQSVAIYQAALDIRQSVFGGKNIHVATAHEDLAY
B5: ARA671-550: ARA67 lacking the PEST sequence (protein, UniProt Q92624 1-550, looked up, fragment)
chain: MAAVELEWIPETLYNTAISAVVDNYIRSRRDIRSLPENIQFDVYYKLYQQGRLCQLGSEFCELEVFAKVLRALDKRHLLHHCFQALMDHGVKVASVLAYSFSRRCSYIAESDAAVKEKAIQVGFVLGGFLSDAGWYSDAEKVFLSCLQLCTLHDEMLHWFRAVECCVRLLHVRNGNCKYHLGEETFKLAQTYMDKLSKHGQQANKAALYGELCALLFAKSHYDEAYKWCIEAMKEITAGLPVKVVVDVLRQASKACVVKREFKKAEQLIKHAVYLARDHFGSKHPKYSDTLLDYGFYLLNVDNICQSVAIYQAALDIRQSVFGGKNIHVATAHEDLAYSSYVHQYSSGKFDNALFHAERAIGIITHILPEDHLLLASSKRVKALILEEIAIDCHNKETEQRLLQEAHDLHLSSLQLAKKAFGEFNVQTAKHYGNLGRLYQSMRKFKEAEEMHIKAIQIKEQLLGQEDYEVALSVGHLASLYNYDMNQYENAEKLYLRSIAIGKKLFGEGYSGLEYDYRGLIKLYNSIGNYEKVFEYHNVLSNWNRLRDRQ

Experiments:
[1] = test system: AR (ARN, ARDBD, ARLBD); assay: GST pull-down assay ARA67 / AR; type: binding, human
Experimental: GST-ARN, GST-ARA67 fusion proteins, and GST control protein were expressed in BL21 (DE3)pLysS bacteria strain (Stratagene) and purified with glutathione-Sepharose beads as instructed by the manufacturer (Amersham Pharmacia). In vitro [^35S]methionine-labeled AR, ARN, AR DBD, AR LBD and ARA67 proteins were generated using TNT-coupled Reticulocyte Lysate Systems (Promega). For in vitro interaction, mixtures of glutathione beads bound GST fusion proteins and 5 μl [^35S]methionine-labeled input proteins in 100 μl interaction buffer (20 mM Tris/pH8.0, 60 mM NaCl, 6 mM MgCl2, 1 mM EDTA, 0.05% Nonidet P-40, 1 mM DTT, 8% glycerol, 1 mM PMSF) were incubated in the presence or absence of 10 μM dihydrotestosterone (DHT) on a rotating disk at 4° C. for 2 h. After washing with NETN buffer (20 mM Tris/pH8.0, 100 mM NaCl, 6 mM MgCl2, 1 mM EDTA, 0.5% Nonidet P-40, 1 mM DTT, 8% glycerol, 1 mM PMSF) four times, the bound proteins were separated on 8-13% SDS-PAGE and visualized by autoradiography.

[2] = test system: AR; assay: AR transactivation reporter gene assay in H1299 cells with ARA67; type: cell-based, human; conditions: H1299 cells, 600 ng construct, MMTV-luc
Chain of AR (P10275 with tags, fused parts or gaps DEL79-80/DUP473-473): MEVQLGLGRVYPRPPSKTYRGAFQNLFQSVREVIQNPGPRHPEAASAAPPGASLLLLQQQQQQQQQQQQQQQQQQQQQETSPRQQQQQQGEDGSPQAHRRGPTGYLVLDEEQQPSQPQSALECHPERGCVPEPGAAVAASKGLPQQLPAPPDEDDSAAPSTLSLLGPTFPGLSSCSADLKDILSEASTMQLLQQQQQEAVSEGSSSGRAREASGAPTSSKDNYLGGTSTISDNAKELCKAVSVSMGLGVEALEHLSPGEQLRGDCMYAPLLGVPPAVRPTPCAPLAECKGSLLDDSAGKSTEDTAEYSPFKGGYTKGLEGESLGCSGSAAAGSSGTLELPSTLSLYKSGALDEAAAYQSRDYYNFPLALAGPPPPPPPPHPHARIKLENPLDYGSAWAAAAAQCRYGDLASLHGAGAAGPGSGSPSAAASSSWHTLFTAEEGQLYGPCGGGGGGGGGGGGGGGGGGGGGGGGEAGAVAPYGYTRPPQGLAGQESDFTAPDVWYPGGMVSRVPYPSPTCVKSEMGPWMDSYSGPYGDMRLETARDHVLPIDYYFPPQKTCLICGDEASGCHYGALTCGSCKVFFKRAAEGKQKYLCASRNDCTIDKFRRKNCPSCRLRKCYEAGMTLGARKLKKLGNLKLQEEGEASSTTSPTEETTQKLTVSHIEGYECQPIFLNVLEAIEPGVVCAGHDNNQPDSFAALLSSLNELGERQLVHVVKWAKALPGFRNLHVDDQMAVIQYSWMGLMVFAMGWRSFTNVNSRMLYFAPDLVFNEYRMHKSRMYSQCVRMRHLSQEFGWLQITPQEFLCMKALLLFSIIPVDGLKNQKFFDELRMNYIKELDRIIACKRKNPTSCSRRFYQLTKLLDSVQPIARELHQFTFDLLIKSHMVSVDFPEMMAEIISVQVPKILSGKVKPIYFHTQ
Experimental: H1299 and COS-1 cells were maintained in Dulbecco's modified Eagle's medium (DMEM) (Life Technologies, Inc.) supplemented with 10% heat inactivated fetal bovine serum (FBS). LNCap cells were maintained in RPMI 1640 supplemented with […]. All media contain 100 units penicillin, 100 μg/ml streptomycin and 2 mM L-glutamine. Cells were seeded to a density of 50-60% confluency for transfection. In transfections where H1299 and COS-1 cells were used, the calcium phosphate precipitation method was used as described (Pan H J, et al. 1999. Endocrine 11:321-327) unless otherwise noted. […] In other reporter gene assays, where ligand treatment was required, cell culture media were changed to DMEM containing 10% charcoal-dextran-stripped FBS (CD-FBS) 2 h before transfection. After 16-18 h transfection, cells were treated with medium containing either vehicle or ligands for another 20-24 h and then cells were harvested. With LNCap cells transfection, the cells were treated with fresh RPMI 1640 containing 10% CD-FBS before transfection with SuperFect performed according to the manufacturer's protocol (Qiagen). After transfection, cells were allowed to recover in fresh RPMI 1640 containing 10% CD-FBS for 8-12 h, and then treated with either vehicle or ligands for another 20-24 h before harvesting. Each experiment was repeated at least three times.

Molecule | interaction with ARN [1] | suppression of AR transactivation by ARA67 fragments [2] | interaction with AR LBD [1]
B1 | relatively weak | better suppressor than ARA67281-550 and ARA67281-585 | 
B2 | relatively weak | could also suppress AR transactivation | 
B3 | slightly stronger interaction |  | 
B4 | very weak interaction |  | no interaction
B5 |  | didn't show a stronger suppression effect than full length ARA67 | 
